In patent publication US12605458B2, “Antibody-drug conjugate having acidic self-stabilization junction” (priority 2017, dated 2026):

Legend:
[1] = Plasma stability in vitro (DAR by RP-HPLC after incubation in human plasma); assay type: in vitro ADME; details: 37° C.
Procedure: A fixed amount of ADC sample was added to human plasma for which human IgG had already been removed, with each ADC tube prepared in triplicate; next, incubation in a 37° C. water bath was performed for 0 hours and 72 hours, after which the ADC sample was removed and 100 μl of Protein A (MabSelect SuRe™ LX Lot: #10221479GE, washed with PBS) was added to each tube; adsorption was then allowed to proceed under agitation on a vertical mixer for two hours, followed by washing and elution to obtain incubated ADC; the plasma stability of each incubated ADC sample was then determined via RP-HPLC.

[2] = SEC-HPLC detection of degree of aggregation; assay type: physicochemical; details: 280 nm
Procedure: ADC samples obtained via conjugation were centrifuged at 14,000 rpm for five minutes and the supernatant was taken for analysis. Instrument: Waters e2695 (2489UV/Vis) Chromatography column: TSKgel G3000SWXL (7.8×300 mm, 5 μm) Mobile phase: A: 50 mM PB, 300 mM NaCl, 200 mM Arg, 5% IPA, pH 6.5 Mobile Phase A was eluted isocratically for 30 minutes; flow rate: 0.714 ml/min, column temperature: 25° C., detection wavelength: 280 nm.

[3] = Hydrophobic interaction chromatography (HIC) assay; assay type: physicochemical; details: eight drug units per antibody, FIG. 4
Procedure: ADC analysis was performed using hydrophobic interaction chromatography (HIC). Elution was performed using 0 to 100% Mobile Phase B (MPB), where Mobile Phase A (MPA) consisted of 1.5 M ammonium sulfate and 0.025 M sodium phosphate, and MPB consisted of 0.025 M sodium phosphate and 25% isopropanol. The sample loading volume was approximately 20 μg, and gradient elution was completed in 15 minutes. 280 nm UV was used for detection, and the stronger the […] sample, the later the peak produced.
Following complete reduction of IgG1 antibody to 8 thiols per antibody according to General Procedure A, corresponding antibody-drug conjugates were prepared via non-specific coupling. ADCs with acidic stabilization junctions and conventional junctions ADC (i.e., MC-VC-PAB-MMAE) with eight drug units per antibody were further separated and purified via hydrophobic interaction chromatography and hydrophobic interaction chromatography (HIC) was used to perform an ADC analysis according to General Procedure C. ADCs with greater hydrophobicity, or larger drug/molecule ratios eluted at later retention times.

MC-VC-PAB-MMAE
0 h DAR ([1]; human plasma with human IgG removed, 0 hours, RP-HPLC): 7.2
72 h DAR ([1]; human plasma with human IgG removed, 72 hours, RP-HPLC): 2.3
drug loss / change in DAR during plasma incubation (in words) ([1]; human plasma, 72 hours): very significant reduction in DAR
Aggregation Rate [2]: 32.46%
Monomer Ratio [2]: 67.51%
HIC retention time (hydrophobicity, in words) [3]: longest retention time
